Data on one substance can be found in patent US20230050449A1, “METHODS FOR TREATING CANCER USING A COMBINATION OF A PD-1 ANTAGONIST, AN ILT4 ANTAGONIST, AND CHEMOTHERAPEUTIC AGENTS” (Merck Sharp & Dohme LLC, priority 2019, published 2023).

The series has as its system participants with advanced solid tumors. In words: Phase 1 open label, multi-arm, multi-center study of MK-4830 as monotherapy or in combination with pembrolizumab (NCT03564691): safety and tolerability. It is filed as in vivo, human. Here is the method:
A phase 1 open label, multi-arm, multi-center study of an anti-ILT4 antibody (“MK-4830”) as monotherapy or in combination with pembrolizumab for participants with advanced solid tumors has been ongoing (NCT03564691).
At the time of the May 10, 2019 data cutoff, a total of 51 participants had received at least 1 dose of MK-4830. In the ongoing MK-4830 monotherapy phase, MK-4830 monotherapy had reached the maximum planned dose level of 1600 mg. In the ongoing MK-4830 plus pembrolizumab combination phase, MK-4830 dose level had reached a maximum dose of 800 mg.
The target dose limiting toxicity (DLT) rate was not reached in any of the cohorts and the maximum tolerated dose (MTD) was not defined.
The most common study-drug related AEs in all participants were arthralgia (9.8%), fatigue (9.8%), decreased appetite (7.8%), diarrhea (7.8%), and pruritus (7.8%). There was one episode of transient Grade 3 blood pressure increase at the 1600 mg dose level in the MK-4830 monotherapy cohort. There were no Grade 4 or 5 drug-related AEs or SAEs.

The mark [1] stands for this setting: of the total 51 treated participants, preliminary data.

Consider “MK-4830: anti-ILT4 antibody; light chain SEQ ID NO:5, heavy chain SEQ ID NO:10 (Table 4)”, for which the “episodes of transient Grade 3 blood pressure increase” value (1600 mg dose level, MK-4830 monotherapy cohort) is recorded as “one episode”. Further, the “grade of the majority of drug-related AEs” value (51 treated participants, preliminary data) was “Grade 1”. Further, where the note is “all 51 treated participants”, the “Grade 4 or 5 drug-related AEs or SAEs” value is reported as “no”. Under “all participants (51 treated)”, the “study-drug related AE: arthralgia” value worked out at 9.8%, the “study-drug related AE: decreased appetite” value is on record as 7.8%, the “study-drug related AE: diarrhea” value was found to be 7.8% and the “study-drug related AE: fatigue” value was 9.8%. In addition, under “all participants (51 treated)”, the “study-drug related AE: pruritus” value was found to be 7.8%. Besides, the “target dose limiting toxicity (DLT) rate” value (any of the cohorts, monotherapy up to 1600 mg, combination with pembrolizumab up to 800 mg, May 10, 2019 data cutoff) was “not reached”. In addition, the “maximum tolerated dose (MTD)” value (monotherapy up to 1600 mg, combination with pembrolizumab up to 800 mg, May 10, 2019 data cutoff) was “not defined”. In addition, under setting [1], the “participants with one or more drug-related AEs (number)” value amounted to 26 and the “participants with one or more drug-related AEs (percent)” value is reported as 51%.
